Biological target: β-amyloid peptide Aβ1-40 (Homo sapiens (Human)) (UniProt P05067)
Test: Dissociation of 125I-VEGF165 from resuspended Aβ1-40/VEGF co-aggregate, radioactivity in supernatant

Sequence of Vascular endothelial growth factor VEGF165 (P15692 other isoform, or with tags, fused parts or gaps): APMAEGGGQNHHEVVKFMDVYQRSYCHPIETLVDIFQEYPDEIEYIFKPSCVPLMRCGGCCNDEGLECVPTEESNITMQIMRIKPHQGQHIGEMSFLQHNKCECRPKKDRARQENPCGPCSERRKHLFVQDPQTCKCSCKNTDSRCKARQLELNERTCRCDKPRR

- percent of VEGF released from the Aβ/VEGF complex after 3 days: < 1.5%
Substance: Vascular endothelial growth factor VEGF165 (from UniProt P15692 207-395) (ligand)
